Target: microtubules (MTs) of porcine brain Tubulin (porcine) (UniProt P02550)
Test: turbidimetry

LEM2 N-terminal domain (LEM2NTD; AA:1–208), sequence (Q8NC56 1-208): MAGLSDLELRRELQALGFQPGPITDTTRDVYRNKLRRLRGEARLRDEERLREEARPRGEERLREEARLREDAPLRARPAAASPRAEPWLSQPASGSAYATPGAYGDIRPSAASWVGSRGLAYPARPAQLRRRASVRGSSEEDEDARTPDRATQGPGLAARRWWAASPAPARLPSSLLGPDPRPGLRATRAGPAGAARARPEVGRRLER

K (apparent) (half-maximal concentration of MT bundling by light scattering)	half max (half-maximal concentration of MT bundling by light scattering)	Substance
1.3 µM	–	LEM2 N-terminal domain (LEM2NTD; AA:1–208) (from UniProt Q8NC56 1-208) (domain or fragment)
–	2.82 µM	LEM2_(Mim1(S82D, S90D, S96D, Y98D, T100D, Y104D)) (from UniProt Q8NC56 1-208) (domain or fragment)
–	8.44 µM	LEM2_(Mim2(Y122D, S134D, S138D, S139D, T147D, S166D, S174D, S175D)) (from UniProt Q8NC56 1-208) (domain or fragment)

— article PMC7321842
